{
  "source": "patent US12612459B2",
  "about": "“Methods of identifying agents that block MCD28 cleavage by MMPS” (BIOND BIOLOGICS LTD., priority 2019, dated 2026)",
  "molecules": {"B1": {"name": "clone 4A4: llama-derived VHH single domain antibody binding the human CD28 stalk region, SEQ ID NO: 30, C-terminal His-tag (protein)", "VHH": "EVQLVESGGGLVQAGGSLRLSCAASGSLFSINAMAWYRQAPGKQRELVAAITSSGSTNYANSVKGRFTVSRDNAKNTMYLQMNSLKPEDTAVYYCVVDEYGSDYWIWGQGTQVTVSSAAAHHHHHH", "modifications": "C-terminal His-tag"}, "B2": {"name": "clone 4A1: llama-derived VHH single domain antibody binding the human CD28 stalk region, SEQ ID NO: 31, C-terminal His-tag (protein)", "VHH": "QVQLVESGGGLVQAGGSLRLSCAASGSIFSINAMGWYRQAPGKQRERVAAITSGGSTNYADSVKGRFTISRDNAKNTVYLQMNNLEPRDAGVYYCVVDLYGEDYWIWGQGTQVTVSSAAAHHHHHH", "modifications": "C-terminal His-tag"}},
  "key": {"MMP-2 [1]": {"molecular_target": "T1, MMP-2 (Homo sapiens, UniProt P08253)", "T1 construct": "purchased AnaSpec and R&D Systems AS-72005 / 902-MP", "T1 sequence (P08253 110-660)": "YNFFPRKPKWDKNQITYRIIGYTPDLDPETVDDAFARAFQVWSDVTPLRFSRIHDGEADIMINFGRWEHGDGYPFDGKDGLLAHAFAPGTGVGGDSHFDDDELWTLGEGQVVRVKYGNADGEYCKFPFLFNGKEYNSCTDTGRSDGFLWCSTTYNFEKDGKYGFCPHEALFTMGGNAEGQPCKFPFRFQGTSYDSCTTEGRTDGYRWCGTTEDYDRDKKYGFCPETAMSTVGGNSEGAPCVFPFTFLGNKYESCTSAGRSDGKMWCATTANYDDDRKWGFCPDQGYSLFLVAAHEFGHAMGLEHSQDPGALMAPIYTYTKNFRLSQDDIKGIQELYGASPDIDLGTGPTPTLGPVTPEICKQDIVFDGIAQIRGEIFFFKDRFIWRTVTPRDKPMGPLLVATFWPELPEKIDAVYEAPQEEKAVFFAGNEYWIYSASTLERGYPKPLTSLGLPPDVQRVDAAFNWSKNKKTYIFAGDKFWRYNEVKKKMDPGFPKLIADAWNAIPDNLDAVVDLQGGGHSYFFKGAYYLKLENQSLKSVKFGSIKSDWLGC", "test": "Fluorogenic assay: cleavage of quenched fluorogenic human CD28 stalk region peptide by MMP-2", "assay_type": "biochemical", "settings": "increasing dose of inhibitor; FIG. 1C", "protocol": "(§1) FIGS. 1A-1E. (1A-1E) Line graphs of fluorescence from quenched fluorogenic peptides of the human CD28 stalk region incubated with (1A) various recombinant human sheddases, (1B) varying concentrations of rhMMP-2, (1C) MMP-2 and various concentrations of the MMP-2 specific inhibitor ARP-100, (1D) varying concentrations of rhMMP-13, or (1E) MMP-13 and broad MMP inhibitor TMI-1.\n(§2) Matrix Metalloproteinases and ADAM's—Commercial recombinant human metalloproteinases MMP-1 (Cat. No. AS-55575), MMP-9 (Cat. No. AS-55576), MMP-10 (Cat. No. AS-72067), MMP-12 (Cat. No. AS-55525) and MMP-13 (Cat. No. AS-72257) are from AnaSpec. […]\n(§3) Fluorogenic Assay—The assay was performed with indicated MMP's (10 or 30 ng) in 50 mM Tris, 10 mM CaCl2), 150 mM NaCl, 0.05% Brij-35, pH 7.5 or ADAM10/ADAM17 (5 μg/mL) in 25 mM Tris, 2.5 mM ZnCl2 and 0.005% Brij-35, pH 9. Cleavage of the fluorogenic substrate (10 μM) was measured at Ex340/Em490 nm using Biotek Synergy H1 spectrofluorometer.\n(§4) It has been hypothesized that ADAM-10 and ADAM-17 may play a role in this shedding. […] When intact, the fluorochrome on the peptide is quenched and no fluorescence is measured. Cleavage of the peptide allows the fluorochrome to dissociate from the quencher and fluorescence is measurable by a dedicated reader. […] The peptide alone without any sheddase added was used as a control to normalize the readings. […]"}, "MMP-13 [2]": {"molecular_target": "T2, MMP-13 (Homo sapiens, UniProt P45452)", "test": "Fluorogenic assay: cleavage of quenched fluorogenic human CD28 stalk region peptide by MMP-13", "assay_type": "biochemical", "settings": "increasing dose of inhibitor; FIG. 1E", "protocol": "as §1, §2, §3, §4"}, "[3]": {"tested_on": "chronically stimulated human PBMCs", "settings": "previously shown in WO2019/175885; dose dependent; cited from earlier work"}, "MMP-2 [4]": {"molecular_target": "T1, MMP-2", "test": "In-vitro cleavage assay of c-Myc tagged, biotinylated dimeric CD28 stalk region peptide by rhMMP-2 (ELISA detection of intact peptide)", "assay_type": "biochemical", "settings": "25 ng and 50 ng MMP-2, 5-hour incubation; FIG. 4C"}, "MMP-13 [5]": {"molecular_target": "T2, MMP-13", "test": "In-vitro cleavage assay of c-Myc tagged, biotinylated dimeric CD28 stalk region peptide by rhMMP-13 (ELISA detection of intact peptide)", "assay_type": "biochemical", "settings": "25 ng and 50 ng MMP-13, 5-hour incubation; FIG. 4D"}, "human CD28 stalk region": {"molecular_target": "T3, human CD28 stalk region (Homo sapiens, UniProt P10747)", "T3 construct": "human CD28 stalk region (His134-Pro152)", "test": "Binding to human CD28 stalk region dimeric peptide by ELISA", "settings": "for binding to human CD28 stalk region sequence: ELISA, serial dilution of VHH clones, FIG. 5; for specific binding to MMP cleavage site of human CD28: WT versus L145K stalk region dimeric peptides, VHH 0.2-5 μg/mL, FIG. 7"}},
  "note": "Where no end group is shown, it is not given here.",
  "data": [
    {"molecule": "CC(C)ON(CC(=O)NO)S(=O)(=O)c1ccc(-c2ccccc2)cc1", "note": "[ARP-100]", "values": [
      {"measurement": "cleavage of the CD28 stalk fluorogenic peptide by MMP-2", "setting": "MMP-2 [1]", "result": "cleavage decreased in a dose dependent manner"}
    ]},
    {"molecule": "CC#CCOc1ccc(S(=O)(=O)N2CCSC(C)(C)[C@@H]2C(=O)NO)cc1", "note": "[TMI-1]", "values": [
      {"measurement": "cleavage of the CD28 stalk fluorogenic peptide by MMP-13", "setting": "MMP-13 [2]", "result": "cleavage decreased in a dose dependent manner"}
    ]},
    {"molecule": "TAPI", "values": [
      {"measurement": "levels of sCD28 produced by chronically stimulated human PBMCs", "setting": "[3]", "result": "diminish levels of sCD28"}
    ]},
    {"molecule": "mutated peptide: cMyc tagged, biotinylated dimeric CD28 stalk region peptide with L145K, EQKLISEEDLGGGGHVKGKHLCPSPKFPGPSKP (SEQ ID NO: 19) (EQKLISEEDLGGGGHVKGKHLCPSPKFPGPSKP-biotin; also: dimeric peptide) [reference compound]", "values": [
      {"measurement": "peptide cleaved by MMP-2", "setting": "MMP-2 [4]", "result": "< 5", "unit": "%"},
      {"measurement": "peptide cleaved by MMP-13", "setting": "MMP-13 [5]", "result": "< 5", "unit": "%"}
    ]},
    {"molecule": "B1", "values": [
      {"measurement": "binding to human CD28 stalk region sequence", "setting": "human CD28 stalk region", "result": "specifically bind the stalk region of human CD28"},
      {"measurement": "specific binding to MMP cleavage site of human CD28", "setting": "human CD28 stalk region", "result": "bind specifically to MMP cleavage site of human CD28"}
    ]},
    {"molecule": "B2", "values": [
      {"measurement": "binding to human CD28 stalk region sequence", "setting": "human CD28 stalk region", "result": "specifically bind the stalk region of human CD28"},
      {"measurement": "specific binding to MMP cleavage site of human CD28", "setting": "human CD28 stalk region", "result": "bind specifically to MMP cleavage site of human CD28"}
    ]}
  ]
}
